Legend:
Assay in all cases: BLI
Conditions in all cases: both partners purified
[1] = biological target: T1, SARS-CoV-2 RBD (residues 319-541), ancestral strain (SARS-CoV-2, UniProt P0DTC2)
T1 construct: source: Expi293, purified (Talon resin)

bat RaTG12-CoV RBD = bat RaTG12-CoV RBD (Bat coronavirus RaTG13 (printed as …, UniProt A0ABF7PLN6))
SARS-CoV-1 RBD = SARS-CoV-1 RBD (SARS-CoV (SARS-CoV-1), isolate not …, UniProt P59594)

Measured: binding result

B1: GAR03, human IgG1 monoclonal antibody (antibody, V domains shown)
VH: QVQLVQSGAEVKKPGASVKVSCKASGYTFSSYDINWVRQAPGQGLEWMGWMSPNSGNTGYAQKFQGRVTMTRSTSMSTAYMELSSLRSEDTAVYFCARMSSSLTNYLDYWGQGTLVTVSS
VL: SYVLTQPPSVAVAPGQTARIRCGENDIGSKNVHWYQQKSGQAPVLVVYDDSDRPSGIPERFSGSNSGNTATLTISRVEAGDEADYYCQVWDSTGDHPDVVFGGGTKLTVL
notes: source: ExpiCHO, purified (Protein G resin)
binds: [1] | bat RaTG12-CoV RBD | SARS-CoV-1 RBD

From PMC9907207 (Nature Communications, 2023)
